US20240161865A1, “METHODS AND PROTEINS FOR TARGETING MAIN PROTEASE OF CORONAVIRUS” (priority 2022, published 2024)

Format: physicochemical
Conditions: 0.5 mg/mL protein, 25 mM HEPES pH 7.5, 1 mM TCEP, scan 15 to 65° C. at 60° C./hour

For “WT Mpro: wild-type SARS-CoV-2 main protease (nsp5), recombinant from E. coli”, the “temperature associated with the DSC thermogram peak” value was 57.2 °C.
